Assay results from patent publication CN114106166A (VIRUS DISEASE PREVENTION AND CONTROL PLACE OF CHINESE …, dated 2022).

How the values were obtained:
[1] = target: T1, 新型冠状病毒Omicron变体RBD蛋白 (SARS-CoV-2 Omicron variant, UniProt P0DTC2 319-541); experiment: SPR, BIAcore 8000, RBD protein coupled to the chip, 1:1 binding fit
T1 construct: domain: RBD

[2] = target: T2, 新型冠状病毒Delta变体RBD蛋白 (SARS-CoV-2 Delta variant, UniProt P0DTC2 319-541); experiment: as above
T2 construct: domain: RBD; also called 新冠Delta变体RBD蛋白

B1: 人源抗新冠病毒中和性抗体D2 (全抗体IgG) (antibody, V domains shown)
VH: EVQLVESGGGLVQPGRSLTLSCGASGFTFEDYAMHWVRQAPGKGLEWVSGIDWNSGVIGYADSVKGRFIISRDNAKNSLYLHMRSLTAEDTALYYCAKDVYSESGSGSYYDYWGQGTLVTVSS
VL: QSVLTQPPSVSAAPGQKVAISCSGSTSNIGDNFVSWYQQFPGTAPKLLLYDDARRPSGIPDRFSGSKSGTSATLGITGLQTGDEAVYFCSTWDNSLNVVLFGGGTKLTVL
notes: also called D2号抗体; 纯化D2抗体
- Kd [1]: 0.011 nM
- Kd [2]: 0.0621 nM
